Measured values: patent US12709641B2, “Tau binding compounds” (VOYAGER THERAPEUTICS, INC., dated 2026)
No end group written: not given here.

T1: residues 57-72 of human tau (human, also: biotin, site not given here, phosphorylated residues, sites not given here)
T1 peptide: EEPGSETSDAKSTPTA

T2: residues 223-238 of human tau (human, also: biotin, site not given here, phosphorylated residues, sites not given here)
T2 peptide: PKKVAVVRTPPKSPSS

T3: residues 175-191 of human tau (human, also: biotin, site not given here, phosphorylated residues, sites not given here)
T3 peptide: TPPAPKTPPSSGEPPKS

T4: residues 383-400 of human tau (human, also: biotin, site not given here, phosphorylated residues, sites not given here)
T4 peptide: KAKTDHGAEIVYKSPVVS

T5: peptides corresponding with residues 413-430 of human tau (human, also: biotin, position not given here, phosphorylated residues, sites not given here)
T5 peptide: STGSIDMVDSPQLATLAD


Legend:
iPHF = iPHF (Homo sapiens (Human), UniProt P10636-8); test: Octet, antibody on biosensor tips
Procedure: Anti-human tau antibodies were assessed for affinity for iPHF by Octet (ForteBio, Menlo Park, CA) analysis. Recombinant mouse IgG antibodies were prepared with clone-specific variable domain pairs selected from those presented in Table 3 and mouse IgG1 constant domains. Candidate antibodies were immobilized on biosensor tips (ForteBio) in kinetic buffer (ForteBio). Biosensor tips were then washed before introduction of a solution of iPHF in kinetic buffer for analysis of association and dissociation with candidate antibodies. Affinity measurements (K_D) were obtained using Data Analysis HT version 11.1 and corrected for background and high-frequency noise.

[1] = target: T6, enriched paired helical filament tau protein (ePHF) (human, phosphorylated residues of pathological tau, sites not stated); test: follow up analysis, method not stated
[2] = target: T1, residues 57-72 of human tau; test: Pepscan biotinylated peptides, BLI or colorimetric detection
Procedure: (§1) Recombinant mouse IgG antibodies were prepared with clone-specific variable domain pairs selected from those presented in Table 3 and mouse IgG1 constant domains. Epitope analysis was carried out with different anti-tau antibodies using a peptide scanning approach (e.g., see Verelst, J. et al. Front Mol Biosci. 2020 Mar. 31; 7:48). Libraries of overlapping synthetic biotinylated peptides corresponding to phosphorylated human tau (Pepscan, Lelystad, NL) were obtained and used to coat assay plate wells, each with individual library members. Recombinant mouse IgG antibodies were prepared with clone-specific variable domain pairs selected from those presented in Table 3 and mouse IgG1 constant domains. Antibody binding to peptides in each well was analyzed using colorimetric detection of peptide-antibody complexes with labeled secondary antibody or by associating biotinylated peptides with streptavidin coated biosensors in assay wells and assessing antibody binding by bio-layer interferometry (BLI)-based detection.

[3] = target: T2, residues 223-238 of human tau; test: as above
Procedure: as §1

[4] = target: T3, residues 175-191 of human tau; test: as above
Procedure: as §1

[5] = target: T4, residues 383-400 of human tau; test: as above
Procedure: as §1

[6] = target: T6, enriched paired helical filament tau …; test: direct ELISA
Procedure: Variable domain nucleic acid sequences from antibodies obtained from immunizations described above were used to prepare recombinant mouse IgG antibodies. These candidate antibodies were analyzed for binding to ePHF and specificity for ePHF over wild type tau by direct ELISA.
For direct ePHF and wildtype tau ELISA, plates were first coated with ePHF or wild type tau. Antigen solutions were prepared in PBS and 50 μL were pipetted into each well. Plates were covered and incubated for one hour at 37° C. or overnight at 4° C. Plates were then washed and blocked by addition of 150 μl of blocking buffer to each well and incubated one hour at room temperature. Plates were then washed before addition of serially diluted candidate antibody samples prepared in blocking buffer. Detection of candidate antibody binding was carried out by washing plates and adding a solution of enzyme-labeled secondary antibody in blocking buffer to each well. Secondary antibody binding was detected by addition of substrate and spectrophotometric analysis of resulting reaction product.

[7] = target: T5, peptides corresponding with residues …; test: Pepscan biotinylated peptides, BLI or colorimetric detection
Procedure: as §1

Binder	Kd (iPHF)	selectivity for ePHF over wild type tau [1]	Kd [2]	Kd [3]	Kd [4]	Kd [5]	EC50 [6]	Kd [7]
V0052 (antibody, V domains shown) VH: not shown VL: SIVMTQTPKFLLVSAGDRVTITCKASQSVSNDVAWYQQKPGQSPKLLIYYASNRCTGVPDRFTGSGYGTDFTFTISTVQAEDLAVYFCQQDYRSPLTFGAGTKLELK	0.6 nM	> 100 fold	14 nM	2.08 nM	7.24 nM	12.6 nM		
V0022 (antibody, V domains shown) VH: QVQLQQPGTELVKPGSSVNLSCKASGFTFTRYWMHWVKERPGHGLEWIGNINPNNGGTDFNEKFKNKATLTVHKSSTTVFIQLSSLTSEDSAVYYCARGTGTGAMDYWGQGTSVTVSS VL: DVVMTQTPLSLPVSLGDQASISCRSSQSLVHNNGITYLYWYLQKPGQSPKLLIYRVSNRFSGVPDRFGGSGSGTDFTLKISRVEAEDLGVYFCFQGTHVPRTFGGGTKLEIK	0.3 nM	> 100 fold					0.07 nM	0.306 nM
V0023 (antibody, V domains shown) VH: QVQLQQPGTELVKPGASVKLSCKASGYTFTIFWMHWVKQRPGHGLEWIGKINPNNGGGDYNEKFKSKATLTVDKSSTTAYLQLSSLTSEDSAVYYCARGTGTGAMDYWGQGTSVTVSS VL: DVVMTQTPLSLPVSLGDHASISCRSSQSLVHSNGITHLYWYLQRPGQTPKLLIYRVSNRFSGVPDRFSGSGSGTDFTLKISSVEAEDLGVYFCFQGTHVPRTFGGGTKLEIE	4 nM	> 100 fold					0.11 nM	0.207 nM
